# T1: CD55 (UniProt P08174 35-353, limits assumed)
# T1 construct: whole, on cells; also called CD55 on Rituximab resistant Raji cells (RRCL)
# T1 sequence (looked up): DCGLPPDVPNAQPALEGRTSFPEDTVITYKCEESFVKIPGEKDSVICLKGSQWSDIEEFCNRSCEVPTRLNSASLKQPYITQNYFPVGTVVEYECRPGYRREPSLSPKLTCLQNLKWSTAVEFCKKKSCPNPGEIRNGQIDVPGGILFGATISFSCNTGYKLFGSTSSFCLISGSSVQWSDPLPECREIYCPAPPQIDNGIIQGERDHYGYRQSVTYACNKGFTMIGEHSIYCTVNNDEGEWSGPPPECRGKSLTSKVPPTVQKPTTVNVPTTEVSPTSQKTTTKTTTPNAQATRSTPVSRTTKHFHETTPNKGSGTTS
# T2: CD20 (UniProt P11836 1-297, limits assumed)
# T2 construct: whole, on cells; also called CD20 on Raji cells
# T2 sequence (looked up): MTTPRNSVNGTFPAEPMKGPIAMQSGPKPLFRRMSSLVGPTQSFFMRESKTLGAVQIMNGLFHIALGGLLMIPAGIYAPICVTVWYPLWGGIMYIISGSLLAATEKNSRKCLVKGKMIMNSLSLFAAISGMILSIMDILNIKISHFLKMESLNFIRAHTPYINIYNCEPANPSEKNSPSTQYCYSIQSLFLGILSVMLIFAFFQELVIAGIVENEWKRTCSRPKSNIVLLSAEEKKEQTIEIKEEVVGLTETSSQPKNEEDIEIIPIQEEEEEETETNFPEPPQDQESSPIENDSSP
# How the values were obtained:
# PD-L1 = PD-L1 (UniProt Q9NZQ7 19-290, limits assumed); experiment: flow cytometry binding to MDA231 cells, Cy3 goat anti-human IgG detection
# PD-L1, sequence (Q9NZQ7 19-290 limits assumed): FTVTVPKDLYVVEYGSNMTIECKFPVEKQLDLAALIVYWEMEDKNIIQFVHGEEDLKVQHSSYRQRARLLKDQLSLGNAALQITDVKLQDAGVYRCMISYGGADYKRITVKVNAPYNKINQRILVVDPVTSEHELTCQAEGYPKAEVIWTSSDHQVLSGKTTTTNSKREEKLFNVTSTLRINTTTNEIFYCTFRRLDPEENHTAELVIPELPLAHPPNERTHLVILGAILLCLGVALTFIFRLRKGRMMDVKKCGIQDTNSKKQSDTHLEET
# Procedure: (§1) a) MDA231 cells are prepared in media at a concentration of 1×10⁶ cells/mL. [0411] b) Dilute antibody sample to an appropriate concentration. [0412] c) Transfer 50 μL, of cells into each well of 96 well V-bottom plate. [0413] d) Transfer 50 μL, of antibodies into wells of 96 well V-bottom plate. [0414] e) Incubate cell mixture for 60 min at room temperature. [0415] f) Spin cells down and wash twice with FACS buffer. [0416] g) Re-suspend cells in 100 μL, FACS buffer containing Cy3 conjugated goat anti-human (GAH) IgG (1:500) in each well. [0417] h) Incubate at room temperature for 30 min, and wash with FACS buffer×2.
# CD55 [1] = target: T1, CD55; experiment: as above
# Procedure: as §1
# CD20 = target: T2, CD20; experiment: flow cytometry binding to CD20+ Raji cells, antibody titration, Cy3 goat anti-human IgG detection
# CD3 = target: T3, CD3 (Homo sapiens (Human), UniProt P07766 23-207; P04234 22-171; P09693 23-182); experiment: flow cytometry binding to CD3+ Jurkat cells, antibody titration, Cy3 goat anti-human IgG detection
# T3 construct: also called CD3 on Jurkat cells
# T3 sequence (P07766 23-207 limits assumed, chain 1 of 3): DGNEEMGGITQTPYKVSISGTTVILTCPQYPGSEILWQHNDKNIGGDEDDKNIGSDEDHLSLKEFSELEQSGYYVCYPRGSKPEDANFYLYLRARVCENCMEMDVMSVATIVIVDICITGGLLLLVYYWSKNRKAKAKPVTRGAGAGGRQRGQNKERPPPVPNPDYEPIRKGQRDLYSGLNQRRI
# T3 sequence (P04234 22-171 limits assumed, chain 2 of 3): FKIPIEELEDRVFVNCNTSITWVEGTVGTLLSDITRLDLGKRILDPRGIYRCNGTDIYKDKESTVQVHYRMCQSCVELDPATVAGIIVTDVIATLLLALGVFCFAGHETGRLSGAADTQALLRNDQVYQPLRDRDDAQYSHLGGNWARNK
# T3 sequence (P09693 23-182 limits assumed, chain 3 of 3): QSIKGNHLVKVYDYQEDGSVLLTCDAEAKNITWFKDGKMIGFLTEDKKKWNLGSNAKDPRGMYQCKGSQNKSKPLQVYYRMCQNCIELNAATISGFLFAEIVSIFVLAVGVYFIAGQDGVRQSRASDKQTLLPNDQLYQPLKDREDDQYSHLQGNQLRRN
# CD55 [2] = target: T1, CD55; experiment: binding at 5 µg/ml, the baseline itself; format not stated
Binder,EC50 (read off the curve) (CD20) [µg/mL],binding result (CD3),other results
"Anti-PD-L1 homodimer IgG (PD-L1 v1) containing the designed VH sequence (SEQ ID NO: 4) and the common VL sequence (SEQ ID NO: 6) (antibody, V domains shown, Homodimer IgG; also called PDL1 homodimer version 1) VH: EVQLLESGGGLVEPGGSLRLSCAASGFTFSSYIMMWVRQAPGKGLEWVSSIYPSGGITFYADTVKGRFTISRDNSKNTLYLQMNSLRAEDTAVYYCARIKLGTVTTVDYWGEGTLVTVSS VL: QSALTQPASVSGSPGQSITISCTGTSSDVGGYNYVSWYQQHPGKAPKLMIYDVSKRPSGVSNRFSGSKSGNTASLTISGLQAEDEADYYCSSYTSASTRIFGGGTKVTVLR",–,–,binding result (PD-L1): binds
"Anti-CD55 homodimer IgG (CD55 v1) containing the designed VH sequence (SEQ ID NO: 5) and the common VL sequence (SEQ ID NO: 6) (antibody, V domains shown, Homodimer IgG; also called CD55 homodimer version 1) VH: QVKLQESGGGLVKPGGSLKLSCAASGFTFSGYGMSWIRQTPGKRLEWVATINSGGSYTYYSDSVKGRFTISRDNVKNTLYLQMSSLKSEDTAMYYCARRNGTLYYYLMDYWGRGTLVTVSS VL: QSALTQPASVSGSPGQSITISCTGTSSDVGGYNYVSWYQQHPGKAPKLMIYDVSKRPSGVSNRFSGSKSGNTASLTISGLQAEDEADYYCSSYTSASTRIFGGGTKVTVLR",–,–,binding result (CD55 [1]): binds
"parental anti-CD20 IgG (Parental CD20) (antibody, V domains shown, IgG; also called Rituximab; CD20 parental Ab) VH: QVQLQQPGAELVKPGASVKMSCKASGYTFTSYNMHWVKQTPGRGLEWIGAIYPGNGDTSYNQKFKGKATLTADKSSSTAYMQLSSLTSEDSAVYYCARSTYYGGDWYFNVWGAGTTVTVSA VL: QIVLSQSPAILSASPGEKVTMTCRASSSVSYIHWFQQKPGSSPKPWIYATSNLASGVPVRFSGSGSGTSYSLTISRVEAEDAATYYCQQWTSNPPTFGGGTKLEIKR",~0.2,no binding (tested: 10 µg/ml),–
"CD20 homodimer IgG containing the designed VH sequence (SEQ ID NO: 1) and the common VL sequence (SEQ ID NO: 3) (antibody, V domains shown, IgG homodimer with two VHa and two common VL; also called redesigned Rituximab; antibody A) VH: QVQLQQPGAELVKPGASVKMSCKASGYTFTSYNMHWVKQTPGRGLEWIGAIYPGNGDTSYNQKFKGKATLTADKSSSTAYMQLSSLRSEDSAVYYCARSTYYGGDWYFNVWGAGTTVTVSA VL: QIVLSQSPAILSASPGEKVTMTCRASSSVSYIHWFQQKPGSSPKPWIYATSNLASGVPVRFSGSGSGTSYSLTISRVEAEDAATYYCQQWTSNPPTFGGGTKLEIKR",~0.4,no binding (tested: 10 µg/ml),–
"CD3 homodimer IgG containing the designed VH sequence (SEQ ID NO: 2) and the common VL sequence (SEQ ID NO: 3) (antibody, V domains shown, IgG homodimer with two VHb and two common VL; also called redesigned 12F6; antibody B) VH: EVQLQESGAELARPGASVKMSCKASGYTFTSYTMHWVKQRPGEGLEWIGYINPSSGYTKYNQKFKDKATLTADKSSSTAYMELSSLTSEDSAVYYCARWQDYDVYFDYWGEGTTLTVSS VL: QIVLSQSPAILSASPGEKVTMTCRASSSVSYIHWFQQKPGSSPKPWIYATSNLASGVPVRFSGSGSGTSYSLTISRVEAEDAATYYCQQWTSNPPTFGGGTKLEIKR",–,–,binding result (CD20): no binding (tested: 10 µg/ml)
"parental anti-CD55 antibody (CD55 wt), monoclonal antibody having CD55VH (SEQ ID NO: 14 without any mutations) and the VL (SEQ ID NO: 15) (antibody, V domains shown, Variable domains derived from a CD55 scFv; also called CD55VH + VL; CD55 parental Ab) VH: QVKLQESGGGLVQPGGSLKLSCAASGFTFSGYGMSWIRQTPDKRLEWVATINSGGSYTYYSDSVKGRFTISRDNVKNTLYLQMSSLKSEDTAMYYCARRNGTLYYYLMDYWGRGTLVTVSS VL: QSVLTQPPSASGSPGQSVTISCTGTSSDVGGYNYVSWYQQHPGKAPKFMIYDVSKRPSGVSNRFSGSKSGNTASLTISGVQAEDEADYYCSSYTSASTVIFGGGTKLTVL",–,–,Function remaining percentage (5 µg/ml) (CD55 [2]): 100%

# Source: patent US20220169728A1 (AB THERAPEUTICS, published 2022)
